Assay results reported in paper PMC4407285 (Cell Reports, 2015).

T1: Candida glabrata Slx1 (Candida glabrata, UniProt Q6FML9 1-312)
T1 sequence: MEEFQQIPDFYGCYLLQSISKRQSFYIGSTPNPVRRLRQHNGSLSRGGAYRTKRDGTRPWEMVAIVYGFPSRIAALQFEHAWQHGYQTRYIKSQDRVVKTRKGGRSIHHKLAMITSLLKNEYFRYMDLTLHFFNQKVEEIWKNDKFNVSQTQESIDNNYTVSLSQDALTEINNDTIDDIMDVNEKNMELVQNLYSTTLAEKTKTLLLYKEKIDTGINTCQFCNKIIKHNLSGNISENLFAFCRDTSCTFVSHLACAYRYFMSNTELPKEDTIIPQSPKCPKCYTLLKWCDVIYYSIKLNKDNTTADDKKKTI


Legend:
[1] = target: Candida glabrata Slx1 (Candida glabrata) (UniProt Q6FML9); assay: SEC-MALS
[2] = target: Candida glabrata Slx1 (Candida glabrata) (UniProt Q6FML9); assay: AUC
[3] = target: T1, Candida glabrata Slx1; assay: co-purification

Candida glabrata Slx4 conserved C-terminal domain (domain or fragment), sequence (Q6FJQ6 557-726 limits assumed): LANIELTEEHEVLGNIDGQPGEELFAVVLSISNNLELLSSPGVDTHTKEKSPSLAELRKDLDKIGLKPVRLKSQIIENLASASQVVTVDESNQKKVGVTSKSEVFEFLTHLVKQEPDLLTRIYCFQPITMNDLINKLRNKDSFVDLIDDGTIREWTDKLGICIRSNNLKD

Row | Molecule | stoichiometry N [1] | stoichiometry N [2] | binding result [3]
1 | Candida glabrata Slx4 conserved C-terminal domain (domain or fragment) | 1 | 1 | 
2 | Candida glabrata Slx4 CCD3 (residues 647-726) (domain or fragment, UniProt Q6FJQ6 647-726, looked up) SNQKKVGVTSKSEVFEFLTHLVKQEPDLLTRIYCFQPITMNDLINKLRNKDSFVDLIDDGTIREWTDKLGICIRSNNLKD |  |  | binds
